{
  "source": "patent US5770717",
  "biological_target": "activation domain-fused yeast RPB4 protein (RPB4 in JG4-5) (yeast (Saccharomyces cerevisiae)) (UniProt P20433)",
  "experiment": "two-hybrid interaction trap in yeast, beta-galactosidase assay with and without activation domain-fused RPB4",
  "data": [
    {"substance": "LexA-RPB7 fusion protein (yeast RPB7) (from UniProt P34087)", "values": [
      {"measurement": "degree of enhancement of activation (beta-galactosidase assay)", "result": 60, "unit": "fold"}
    ]}
  ]
}
